Key:
[1] = biological target: T1, recombinant His-tagged human FcγRIIIa 176-Phe (Sino Biological, Cat #10389-H27H-B) (human, UniProt P08637 17-208); experiment: SPR (Biacore): His-tagged FcγRIIIa-F captured on an anti-His chip, antibody injected
T1 construct: Bought protein; also called FcγRIIIa-F; FcγRIIIa (176-Phe [F]); not shown: His tag

[2] = biological target: T2, recombinant His-tagged human FcγRIIIa 176-Val (Sino Biological, Cat #10389-H27H1-B) (human, UniProt P08637 17-208); experiment: SPR (Biacore): His-tagged FcγRIIIa-V captured on an anti-His chip, antibody injected
T2 construct: Bought protein; also called FcγRIIIa-V; FcγRIIIa (176-Val [V]); not shown: His tag

[3] = biological target: T3, human CD27 expressed on cells (T cells, transfected HEK293F cells, Daudi cells, NFκB-luc2/CD27 Jurkat … (human, UniProt P26842 20-240)); experiment: flow cytometry on CD4+ T cells in human PBMC, FITC-conjugated goat anti-human IgG F(ab')2, median FITC
T3 construct: also called TNFRSF7
T3 sequence: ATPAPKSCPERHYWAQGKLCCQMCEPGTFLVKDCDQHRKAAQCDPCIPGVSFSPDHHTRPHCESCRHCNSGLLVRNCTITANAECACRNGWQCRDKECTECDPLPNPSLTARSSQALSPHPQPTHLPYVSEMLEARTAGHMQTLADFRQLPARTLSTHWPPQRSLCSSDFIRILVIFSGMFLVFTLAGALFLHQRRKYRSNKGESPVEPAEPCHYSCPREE
Method: (§1) Binding of IgG1-CD27-A-P329R-E345R to CD27 on human healthy donor T cells was characterized in more detail using flow cytometry. Anti-HIV gp120 antibody variant IgG1-b12-P329R-E345R was used as non-binding control antibody (ctrl). Human PBMCs were isolated from buffy coats obtained from human healthy donors. PBMCs (1×10⁵ cells/well) in FACS buffer were added to polystyrene 96-well round-bottom plates (Greiner bio-one, Cat #650101) and pelleted by centrifugation at 300×g for 3 min at 4° C. The cells were resuspended in 50 μL/well serial antibody dilutions in FACS buffer (range 0.0015 to 10 μg/mL in 3-fold dilution steps) and incubated for 30 min at 4° C. Cells were pelleted, washed twice with FACS buffer and incubated in 50 μL/well with FITC-conjugated secondary antibody (FITC AffiniPure F(ab′)₂ fragment goat anti-human IgG, F(ab′)₂ fragment specific, Jackson ImmunoResearch, Cat #109-096-097, diluted 1:100) for 30 min at 4° C. in the dark. […] The samples were measured by flow cytometry on an LSRFortessa (BD) flow cytometer and analyzed using FlowJo software. Binding curves were analyzed using non-linear regression (sigmoidal dose-response with variable slope) using GraphPad Prism 8 software.

[4] = biological target: T4, human C1q (from normal human serum) (human, UniProt P02745 23-245; P02746 28-253; P02747 29-245); experiment: flow cytometry: human T cells opsonised with the antibody, 20% normal human serum as source of C1q, FITC-labelled rabbit anti-human C1q
T4 construct: 20% normal human serum was the source of C1q

[5] = biological target: T3, human CD27 expressed on cells (T cells, …); experiment: flow cytometry on CD8+ T cells in human PBMC, FITC-conjugated goat anti-human IgG F(ab')2, median FITC
Method: as §1

[6] = biological target: T5, recombinant His-tagged human FcγRIIb (Sino Biological, Cat #10259-H27H-B) (human, UniProt P31994 43-217); experiment: SPR (Biacore): His-tagged FcγRIIb captured on an anti-His chip, antibody injected
T5 construct: Bought protein; not shown: His tag
T5 sequence (looked up): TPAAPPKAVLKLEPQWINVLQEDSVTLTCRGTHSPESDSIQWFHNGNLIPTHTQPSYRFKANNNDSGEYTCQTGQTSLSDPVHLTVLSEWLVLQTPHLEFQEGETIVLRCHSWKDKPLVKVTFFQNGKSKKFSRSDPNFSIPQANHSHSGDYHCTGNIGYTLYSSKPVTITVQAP

[7] = biological target: T6, recombinant His-tagged human FcγRIIa 167-His (Sino Biological, Cat #10374-H27H) (human, UniProt P12318 34-218); experiment: SPR (Biacore): His-tagged FcγRIIa-H captured on an anti-His chip, antibody injected
T6 construct: Bought protein; also called FcγRIIa-H; FcγRIIa (167-His [H]); not shown: His tag
T6 sequence (looked up): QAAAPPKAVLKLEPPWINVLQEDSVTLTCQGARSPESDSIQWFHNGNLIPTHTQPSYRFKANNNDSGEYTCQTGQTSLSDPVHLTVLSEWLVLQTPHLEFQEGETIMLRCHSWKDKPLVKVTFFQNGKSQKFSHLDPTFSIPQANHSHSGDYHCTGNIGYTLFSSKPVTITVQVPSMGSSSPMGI

[8] = biological target: T7, recombinant His-tagged human FcγRIIa 167-Arg (Sino Biological, Cat #10374-H27H1-B) (human, UniProt P12318 34-218); experiment: SPR (Biacore): His-tagged FcγRIIa-R captured on an anti-His chip, antibody injected
T7 construct: Bought protein; also called FcγRIIa-R; FcγRIIa (167-Arg [R]); not shown: His tag
T7 sequence (looked up): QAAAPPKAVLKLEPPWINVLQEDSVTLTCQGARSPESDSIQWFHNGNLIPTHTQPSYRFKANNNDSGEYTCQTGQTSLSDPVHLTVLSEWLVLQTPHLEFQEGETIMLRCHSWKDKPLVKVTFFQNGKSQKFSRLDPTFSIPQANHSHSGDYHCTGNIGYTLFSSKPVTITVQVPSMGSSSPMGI

[9] = biological target: T8, recombinant His-tagged human FcγRIa (Sino Biological, Cat #10256-H08S-B) (human, UniProt P12314 16-288); experiment: SPR (Biacore): His-tagged FcγRIa captured on an anti-His chip, antibody injected; resonance units against antibody concentration
T8 construct: Bought protein; not shown: His tag
Method: Binding of IgG1-CD27-A-P329R-E345R to human FcγR variants was analyzed using a Biacore surface plasmon resonance (SPR) system and compared to an anti-HIV gp120 antibody IgG1-b12 (ctrl). Biacore Series S Sensor Chips CM5 (Cytiva, Cat #29104988) were covalently coated with anti-His antibody using amine-coupling and His capture kits (Cytiva, Cat #BR100050 and Cat #29234602) according to the manufacturer's instructions. […] After three cycles of buffer, antibody samples were injected for 36 cycles to generate binding curves using antibody ranges of 0-3,000 nM for FcγRI and 0-10,000 nM for the other FcγRs. Each sample that was analyzed on an FcR-coated surface (Active Surface) was also analyzed on a parallel flow-cell without FcR (Reference Surface), which was used for background correction. Dissociation from the anti-His-coated surface was performed by regeneration of the surface using 10 mM Glycine-HCl pH 1.5 (Cytiva, Cat #BR100354). Sensograms were generated using Biacore Insight Evaluation software (Cytiva) and a four-parameter logistic (4PL) fit was applied to calculate relative binding of IgG1-CD27-A-P329R-E345R against the reference sample (ctrl).

T1 sequence (P08637 17-208 limits assumed): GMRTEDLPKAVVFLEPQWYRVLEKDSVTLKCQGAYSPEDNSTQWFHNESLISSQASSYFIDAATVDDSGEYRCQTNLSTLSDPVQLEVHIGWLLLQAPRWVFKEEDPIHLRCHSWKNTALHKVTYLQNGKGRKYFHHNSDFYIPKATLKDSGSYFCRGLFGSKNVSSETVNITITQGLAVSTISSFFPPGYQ
T4 sequence (P02745 23-245 limits assumed, chain 1 of 3): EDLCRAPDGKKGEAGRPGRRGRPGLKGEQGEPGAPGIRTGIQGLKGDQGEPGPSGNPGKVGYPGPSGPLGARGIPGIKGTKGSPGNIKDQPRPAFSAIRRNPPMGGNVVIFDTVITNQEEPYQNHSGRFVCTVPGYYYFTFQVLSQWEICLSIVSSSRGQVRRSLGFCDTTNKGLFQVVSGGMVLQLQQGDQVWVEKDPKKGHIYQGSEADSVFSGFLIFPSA
T4 sequence (P02746 28-253 limits assumed, chain 2 of 3): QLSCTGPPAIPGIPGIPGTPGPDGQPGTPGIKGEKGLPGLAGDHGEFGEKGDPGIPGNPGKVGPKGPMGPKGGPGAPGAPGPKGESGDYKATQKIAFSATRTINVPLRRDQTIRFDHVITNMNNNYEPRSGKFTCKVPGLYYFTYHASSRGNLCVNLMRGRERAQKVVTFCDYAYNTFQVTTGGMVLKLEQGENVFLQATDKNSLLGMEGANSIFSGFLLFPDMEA
T4 sequence (P02747 29-245 limits assumed, chain 3 of 3): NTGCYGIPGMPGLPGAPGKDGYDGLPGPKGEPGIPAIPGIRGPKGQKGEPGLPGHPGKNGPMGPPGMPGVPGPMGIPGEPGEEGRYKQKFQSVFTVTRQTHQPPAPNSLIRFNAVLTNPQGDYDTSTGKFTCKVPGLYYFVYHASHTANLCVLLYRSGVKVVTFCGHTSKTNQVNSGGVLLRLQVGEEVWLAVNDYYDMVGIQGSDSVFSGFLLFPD
T8 sequence (P12314 16-288 limits assumed, stated change not applied): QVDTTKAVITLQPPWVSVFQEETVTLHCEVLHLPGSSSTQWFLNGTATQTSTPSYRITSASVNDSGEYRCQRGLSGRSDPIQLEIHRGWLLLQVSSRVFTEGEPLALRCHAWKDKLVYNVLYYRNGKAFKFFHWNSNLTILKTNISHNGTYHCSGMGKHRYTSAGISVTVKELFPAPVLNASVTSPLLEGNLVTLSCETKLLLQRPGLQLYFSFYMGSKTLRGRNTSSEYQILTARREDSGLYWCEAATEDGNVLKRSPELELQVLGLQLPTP
T2 sequence (P08637 17-208 F176V limits assumed): as the sequence (P08637 17-208 limits assumed) above, with F160V counted along it

binding result [1]: no binding (tested: 10,000 nM)
binding result [2]: no binding (tested: 10,000 nM)
EC50 (read off the curve) [3]: ~0.03 µg/mL
binding result [4]: no binding (tested: 15 µg/mL)
EC50 (read off the curve) [5]: ~0.03 µg/mL
binding result [6]: no binding (tested: 10,000 nM)
binding result [7]: no binding (tested: 10,000 nM)
binding result [8]: no binding (tested: 10,000 nM)
binding result [9]: binds
B1: IgG1-CD27-A-P329R-E345R (antibody)
heavy: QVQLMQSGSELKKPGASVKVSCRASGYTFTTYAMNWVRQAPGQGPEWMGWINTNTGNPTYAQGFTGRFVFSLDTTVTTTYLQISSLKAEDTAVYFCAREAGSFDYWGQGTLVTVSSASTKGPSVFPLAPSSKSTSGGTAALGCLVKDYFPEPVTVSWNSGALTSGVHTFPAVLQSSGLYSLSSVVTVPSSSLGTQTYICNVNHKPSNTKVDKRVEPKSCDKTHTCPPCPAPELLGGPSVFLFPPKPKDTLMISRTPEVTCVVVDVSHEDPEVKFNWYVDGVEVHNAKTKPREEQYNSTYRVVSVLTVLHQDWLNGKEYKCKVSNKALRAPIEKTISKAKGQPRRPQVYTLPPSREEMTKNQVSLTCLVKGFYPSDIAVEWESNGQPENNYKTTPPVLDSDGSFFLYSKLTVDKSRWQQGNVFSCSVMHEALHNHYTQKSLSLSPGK
light: QSALTQPASVSGSPGQSITISCTGTSSDVYYYNYVSWYQQHPGRAPKLVIYDVSNRPSGVSNRFSGSKSGNTASLTISGLRAEDEADYYCSSYTVNRVWVFGGGTKLTVLGQPKAAPSVTLFPPSSEELQANKATLVCLISDFYPGAVTVAWKADSSPVKAGVETTTPSKQSNNKYAASSYLSLTPEQWKSHRSYSCQVTHEGSTVEKTVAPTECS
notes: also called IgG1-CD27-A-E345R-P329R
